Data on six molecules can be found in publication PMC12808100 (Nature Communications, 2025).

T1: EPS15 (human (endogenous in Jurkat), UniProt P42566 1-896)
T1 construct: EPS15, EH protein with three EH domains, endogenous in Jurkat E6.1 extract, detected by western blot with an EPS15 antibody; also called endogenous EPS15; EH protein with three EH domains; source: endogenous, total Jurkat extract
T1 sequence (looked up): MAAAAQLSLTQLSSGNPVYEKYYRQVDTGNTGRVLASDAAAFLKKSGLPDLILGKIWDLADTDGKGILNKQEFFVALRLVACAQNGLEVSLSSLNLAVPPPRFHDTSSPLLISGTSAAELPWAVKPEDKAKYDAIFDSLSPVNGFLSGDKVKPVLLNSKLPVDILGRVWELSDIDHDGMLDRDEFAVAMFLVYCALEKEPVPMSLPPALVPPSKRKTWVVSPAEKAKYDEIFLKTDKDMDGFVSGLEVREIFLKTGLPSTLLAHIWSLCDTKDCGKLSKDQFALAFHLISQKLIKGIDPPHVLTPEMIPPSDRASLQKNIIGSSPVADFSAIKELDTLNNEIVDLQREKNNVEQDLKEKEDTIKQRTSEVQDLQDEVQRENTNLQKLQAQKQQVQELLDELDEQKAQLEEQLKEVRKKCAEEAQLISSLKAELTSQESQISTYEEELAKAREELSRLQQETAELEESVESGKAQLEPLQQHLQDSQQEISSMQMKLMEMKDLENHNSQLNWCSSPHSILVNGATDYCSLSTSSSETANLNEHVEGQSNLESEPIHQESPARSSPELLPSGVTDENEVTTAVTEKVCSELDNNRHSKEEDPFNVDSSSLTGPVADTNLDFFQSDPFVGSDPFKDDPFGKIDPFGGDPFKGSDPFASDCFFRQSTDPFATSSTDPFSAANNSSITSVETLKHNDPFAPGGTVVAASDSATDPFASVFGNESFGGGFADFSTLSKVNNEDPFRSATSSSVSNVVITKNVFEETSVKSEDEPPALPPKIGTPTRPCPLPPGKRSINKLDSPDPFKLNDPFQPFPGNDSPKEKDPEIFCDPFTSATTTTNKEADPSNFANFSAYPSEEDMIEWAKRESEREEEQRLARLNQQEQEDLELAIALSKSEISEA

B1: HA-WDHD1, full length, NPF motif mutated to KAF (natural protein, human, UniProt O75717 1-1129, looked up)
chain: MPATRKPMRYGHTEGHTEVCFDDSGSFIVTCGSDGDVRIWEDLDDDDPKFINVGEKAYSCALKSGKLVTAVSNNTIQVHTFPEGVPDGILTRFTTNANHVVFNGDGTKIAAGSSDFLVKIVDVMDSSQQKTFRGHDAPVLSLSFDPKDIFLASASCDGSVRVWQISDQTCAISWPLLQKCNDVINAKSICRLAWQPKSGKLLAIPVEKSVKLYRRESWSHQFDLSDNFISQTLNIVTWSPCGQYLAAGSINGLIIVWNVETKDCMERVKHEKGYAICGLAWHPTCGRISYTDAEGNLGLLENVCDPSGKTSSSKVSSRVEKDYNDLFDGDDMSNAGDFLNDNAVEIPSFSKGIINDDEDDEDLMMASGRPRQRSHILEDDENSVDISMLKTGSSLLKEEEEDGQEGSIHNLPLVTSQRPFYDGPMPTPRQKPFQSGSTPLHLTHRFMVWNSIGIIRCYNDEQDNAIDVEFHDTSIHHATHLSNTLNYTIADLSHEAILLACESTDELASKLHCLHFSSWDSSKEWIIDLPQNEDIEAICLGQGWAAAATSALLLRLFTIGGVQKEVFSLAGPVVSMAGHGEQLFIVYHRGTGFDGDQCLGVQLLELGKKKKQILHGDPLPLTRKSYLAWIGFSAEGTPCYVDSEGIVRMLNRGLGNTWTPICNTREHCKGKSDHYWVVGIHENPQQLRCIPCKGSRFPPTLPRPAVAILSFKLPYCQIATEKGQMEEQFWRSVIFHNHLDYLAKNGYEYEESTKNQATKEQQELLMKMLALSCKLEREFRCVELADLMTQNAVNLAIKYASRSRKLILAQKLSELAVEKAAELTATQVEEEEEEEDFRKKLNAGYSNTATEWSQPRFRNQVEEDAEDSGEADDEEKPEIHKPGQNSFSKSTNSSDVSAKSGAVTFSSQGRVKAFKVSASSKEPAMSMNSARSTNILDNMGKSSKKSTALSRTTNNEKSPIIKPLIPKPKPKQASAASYFQKRNSQTNKTEEVKEENLKNVLSETPAICPPQNTENQRPKTGFQMWLEENRSNILSDNPDFSDEADIIKEGMIRFRVLSTEERKVWANKAKGETASEGTEAKKRKRVVDESDETENQEEKAKENLNLSKKQKPLDFSTNQKLSAFAFKQE
notes: WDHD1, residues 1-1129; also called WDHD1 mutant; source: HEK293T, transfected, in cell extract; not shown: HA, N-terminal, kept
B2: NPF motif peptide of DONSON (residues 71-88) (peptide)
peptide: {Biotin-TTDS}-GPAAARRNPFARLDNRPR-NH2
notes: Protein downstream neighbor of Son (DONSON), residues 71-88; also called DONSON_71-88; DONSON_718-88 (as printed in the sheet); source: synthetic peptide (ABI 443 A synthesizer, Fmoc strategy)
B3: DONSON-SYNJ1 chimera peptide, N-terminal flank replaced (peptide)
chain: GPAATRTNPFARLDNRPR
HELM: PEPTIDE1{[O=C1N[C@H]2[C@H](CS[C@H]2CCCCC(=O)[*:2])N1].[O=C(CCCCCN[*:1])[*:2]].G.P.A.A.T.R.T.N.P.F.A.R.L.D.N.R.P.R.[am]}$$$$V2.0
SMILES: CC(C)C[C@H](NC(=O)[C@H](CCCNC(=N)N)NC(=O)[C@H](C)NC(=O)[C@H](Cc1ccccc1)NC(=O)[C@@H]1CCCN1C(=O)[C@H](CC(N)=O)NC(=O)[C@@H](NC(=O)[C@H](CCCNC(=N)N)NC(=O)[C@@H](NC(=O)[C@H](C)NC(=O)[C@H](C)NC(=O)[C@@H]1CCCN1C(=O)CNC(=O)CCCCCNC(=O)CCCC[C@@H]1SC[C@@H]2NC(=O)N[C@@H]21)[C@@H](C)O)[C@@H](C)O)C(=O)N[C@@H](CC(=O)O)C(=O)N[C@@H](CC(N)=O)C(=O)N[C@@H](CCCNC(=N)N)C(=O)N1CCC[C@H]1C(=O)N[C@@H](CCCNC(=N)N)C(N)=O
B4: DONSON-SYNJ1 chimera peptide, both flanks replaced (peptide)
chain: GPAATRTNPFSDRDNRPR
HELM: PEPTIDE1{[O=C1N[C@H]2[C@H](CS[C@H]2CCCCC(=O)[*:2])N1].[O=C(CCCCCN[*:1])[*:2]].G.P.A.A.T.R.T.N.P.F.S.D.R.D.N.R.P.R.[am]}$$$$V2.0
SMILES: C[C@H](NC(=O)[C@H](C)NC(=O)[C@@H]1CCCN1C(=O)CNC(=O)CCCCCNC(=O)CCCC[C@@H]1SC[C@@H]2NC(=O)N[C@@H]21)C(=O)N[C@H](C(=O)N[C@@H](CCCNC(=N)N)C(=O)N[C@H](C(=O)N[C@@H](CC(N)=O)C(=O)N1CCC[C@H]1C(=O)N[C@@H](Cc1ccccc1)C(=O)N[C@@H](CO)C(=O)N[C@@H](CC(=O)O)C(=O)N[C@@H](CCCNC(=N)N)C(=O)N[C@@H](CC(=O)O)C(=O)N[C@@H](CC(N)=O)C(=O)N[C@@H](CCCNC(=N)N)C(=O)N1CCC[C@H]1C(=O)N[C@@H](CCCNC(=N)N)C(N)=O)[C@@H](C)O)[C@@H](C)O
B5: DONSON-SYNJ1 chimera peptide, C-terminal flank replaced (peptide)
chain: GPAAARRNPFSDRDNRPR
HELM: PEPTIDE1{[O=C1N[C@H]2[C@H](CS[C@H]2CCCCC(=O)[*:2])N1].[O=C(CCCCCN[*:1])[*:2]].G.P.A.A.A.R.R.N.P.F.S.D.R.D.N.R.P.R.[am]}$$$$V2.0
SMILES: C[C@H](NC(=O)[C@H](C)NC(=O)[C@@H]1CCCN1C(=O)CNC(=O)CCCCCNC(=O)CCCC[C@@H]1SC[C@@H]2NC(=O)N[C@@H]21)C(=O)N[C@@H](C)C(=O)N[C@@H](CCCNC(=N)N)C(=O)N[C@@H](CCCNC(=N)N)C(=O)N[C@@H](CC(N)=O)C(=O)N1CCC[C@H]1C(=O)N[C@@H](Cc1ccccc1)C(=O)N[C@@H](CO)C(=O)N[C@@H](CC(=O)O)C(=O)N[C@@H](CCCNC(=N)N)C(=O)N[C@@H](CC(=O)O)C(=O)N[C@@H](CC(N)=O)C(=O)N[C@@H](CCCNC(=N)N)C(=O)N1CCC[C@H]1C(=O)N[C@@H](CCCNC(=N)N)C(N)=O
B6: NPF motif peptide of SYNJ1 (residues 1390-1421) (peptide)
peptide: RSSPNPFITGLTRTNPFSDRTAAPGNPFRAKS
HELM: PEPTIDE1{[O=C1N[C@H]2[C@H](CS[C@H]2CCCCC(=O)[*:2])N1].[O=C(CCCCCN[*:1])[*:2]].R.S.S.P.N.P.F.I.T.G.L.T.R.T.N.P.F.S.D.R.T.A.A.P.G.N.P.F.R.A.K.S.[am]}$$$$V2.0
SMILES: CC[C@H](C)[C@H](NC(=O)[C@H](Cc1ccccc1)NC(=O)[C@@H]1CCCN1C(=O)[C@H](CC(N)=O)NC(=O)[C@@H]1CCCN1C(=O)[C@H](CO)NC(=O)[C@H](CO)NC(=O)[C@H](CCCNC(=N)N)NC(=O)CCCCCNC(=O)CCCC[C@@H]1SC[C@@H]2NC(=O)N[C@@H]21)C(=O)N[C@H](C(=O)NCC(=O)N[C@@H](CC(C)C)C(=O)N[C@H](C(=O)N[C@@H](CCCNC(=N)N)C(=O)N[C@H](C(=O)N[C@@H](CC(N)=O)C(=O)N1CCC[C@H]1C(=O)N[C@@H](Cc1ccccc1)C(=O)N[C@@H](CO)C(=O)N[C@@H](CC(=O)O)C(=O)N[C@@H](CCCNC(=N)N)C(=O)N[C@H](C(=O)N[C@@H](C)C(=O)N[C@@H](C)C(=O)N1CCC[C@H]1C(=O)NCC(=O)N[C@@H](CC(N)=O)C(=O)N1CCC[C@H]1C(=O)N[C@@H](Cc1ccccc1)C(=O)N[C@@H](CCCNC(=N)N)C(=O)N[C@@H](C)C(=O)N[C@@H](CCCCN)C(=O)N[C@@H](CO)C(N)=O)[C@@H](C)O)[C@@H](C)O)[C@@H](C)O)[C@@H](C)O
notes: SYNJ1, residues 1390-1421, contains three NPF motifs; also called SYNJ1_1390-1421; triple motif of SYNJ1; source: synthetic peptide; bought: Synpeptide

*: point of attachment. Biotin = O=C1N[C@H]2[C@H](CS[C@H]2CCCCC(=O)*)N1; TTDS = Trioxatridecan-succinamic acid linker Where only a bound is given, the exact number is not on record here.

For the first experiment, the target named is T2, His6-AviTag-MBP-TEV-POLE2 (human, UniProt P56282 1-527, biotin on the AviTag (BirA co-expressed, biotin in the medium)).
T2 construct: POLE2, residues 1-527; a TEV site lies between MBP and POLE2; also called His6-avi-MBP-tagged POLE2; avi-His6-MBP-POLE2; source: E. coli BL21(DE3), co-expressed with BirA, purified (HisTrap, MBPtrap, Q HP); not shown: His6, N-terminal, kept; AviTag, N-terminal, kept; MBP, N-terminal, kept
T2 sequence (P56282 whole entry, the tested form may be a part): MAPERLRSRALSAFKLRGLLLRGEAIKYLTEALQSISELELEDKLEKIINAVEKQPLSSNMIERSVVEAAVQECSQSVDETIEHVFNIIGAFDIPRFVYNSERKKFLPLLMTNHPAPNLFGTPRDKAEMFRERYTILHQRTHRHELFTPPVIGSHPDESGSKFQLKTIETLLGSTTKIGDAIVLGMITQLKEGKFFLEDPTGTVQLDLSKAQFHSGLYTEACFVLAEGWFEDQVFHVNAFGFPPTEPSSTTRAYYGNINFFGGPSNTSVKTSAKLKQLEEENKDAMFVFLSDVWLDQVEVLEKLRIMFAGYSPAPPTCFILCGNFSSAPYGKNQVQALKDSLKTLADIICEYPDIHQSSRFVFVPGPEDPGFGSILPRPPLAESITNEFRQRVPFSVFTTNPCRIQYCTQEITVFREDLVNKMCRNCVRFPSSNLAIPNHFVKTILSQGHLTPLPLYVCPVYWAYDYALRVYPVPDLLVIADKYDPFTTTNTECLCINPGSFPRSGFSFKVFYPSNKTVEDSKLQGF
Nature of the experiment: native holdup (nHU) titration with dot blot; purified His6-avi-MBP-tagged POLE2 as bait on resin; extracts of HEK293T cells transfected with HA-tagged full length proteins; 4 °C, 2 h; anti-HA dot blot; apparent. The conditions noted are these: one partner purified.
Turning to B1, the “fold weaker affinity than the wild type” value was 1000 fold.

Another experiment concerns the target T1, EPS15. Nature of the experiment: native holdup (nHU) titration with western blot; biotinylated peptide bait on streptavidin resin, bait-saturated and control (biotin) resin mixed at various proportions; total Jurkat extract as analyte; 4 °C, 2 h; endogenous POLE and EPS15 left in the supernatant quantified by western blot; apparent dissociation constants. The conditions noted are these: one partner purified.
On to B2, for which the Kd was > 60 µM. In the case of B3, the Kd was > 30 µM. For B4, the Kd is > 200 µM. As for B5, the Kd was > 20 µM. Same read-out and setting: the figure for B6 is 1 µM.
